In test [1] the target is pHERV-W ENV soluble antigen from MS brain active lesions (human (endogenous in MS brain lesions)). The test can be described thus: automated capillary Western blot (Simple Western, WES); soluble fraction of frozen brain white matter blocks (MS active lesions), fos-cholin 16 extraction, >= 120 kDa enriched on AMICON, denaturing conditions; detection with GN_mAb_Env01-biotin, or GN_mAb_Env04 after deglycosylation.

The target of test [2] is pHERV-W ENV expressed in transfected HEK293T cells (pCMV-HERV-W ENV) (human). The test can be described thus: automated capillary Western blot (Simple Western, WES); lysates of transfected HEK293T cells in RIPA with 1% fos-cholin 16, soluble and insoluble fractions, denatured at 95 °C; 12-230 kDa and 66-440 kDa matrices; detection with GN_mAb_Env01, GN_mAb_Env04, GN_mAb_Env-K01 or anti-FLAG.

Test [3] has the same target. Described as above. The source holds these as a separate data set.
Test [4] deals with Purified recombinant full-length HERV-W ENV protein (pHERV-W ENV) produced in E. coli (human). The test can be described thus: automated capillary Western blot (Simple Western, WES); purified rENV incubated up to 24 h at 37 °C in DMEM with 10% FBS (also with 1.5% SDS overnight: only a low proportion of hexamer); samples denatured at 95 °C; detection with GN_mAb_Env01; denaturation-resistant oligomers.

The target is the same in test [5]. The test can be described thus: automated capillary Western blot (Simple Western, WES); purified rENV monomers incubated in serum-free DMEM with sulfatides from bovine brain; detection with GN_mAb_Env01, or GN_mAb_Env04 after deglycosylation.

Where “and” joins values, the source holds several entries; their conditions need not be identical. Identical values can stand only once. Like-named read-outs stand apart in the source and are kept apart here.

One may read the stoichiometry N as the number of molecules, sites or subunits per partner or assembly. As to “pHERV-W ENV soluble antigen from MS brain active lesions (natural protein)”, the stoichiometry N in test [1] worked out at 6.

Take “pHERV-W ENV expressed in transfected HEK293T cells (pCMV-HERV-W ENV) (natural protein)”: the stoichiometry N is 2 in test [2] and 3 in test [3].

Take “Purified recombinant full-length HERV-W ENV protein (pHERV-W ENV) produced in E. coli (natural protein)”: the stoichiometry N is 6 and 2 in test [4]; 6 in test [5].

(Values after article PMC8558138.)
